The source of these data is patent US20250361295A1 (ANTENGENE BIOLOGICS, published 2025).

B1: 43-D12-F3-G11 (antibody, V domains shown)
VH: EVQVVESGPGLVAPSQSLSITCTVSGFSLTSYGVSWVRQPPGKGLEWLGVIWADGSTNYHSALLSRLSISKDNSKSQVFLKLNSLQTDDTATYYCAKGHWDGFAYWGQGTLVAVSA
VL: DIVLTQSPAIMSTSPGEKVTLTCSASSSITSSYLYWYQQKPGSSPKLWIYSTSNLASGVPARFSGSGSGTSYYLTISSMEAEDAASYFCHQWSSYPPTFGGGTKLELK
notes: mouse monoclonal hybridoma antibody
B2: 8-B3-F6-H8 (antibody, V domains shown)
VH: EVKVIESGGGLVQPGGSLKLSCAASGFDFSRYWMSWVRQAPGKGLEWIGEINPDSSAINYTPSLKDKFIISRDNAKNTLYLQMSKVRSEDTALYYCATSMTMDYWGQGTSVTVSS
VL: DIVMTQSPSSMYASLGERVTITCKASQDIKSYLSWYQQKPWKSPKTLIYYATSLADGVPSRFSGSGSGQDYSLTISSLESDDTATYYCLQHGESPYTFGGGTKLEK
notes: as for B1
B3: 25-E7-A10-H6 (antibody, V domains shown)
VH: EVQLVESGGGLVQPGGSRKLSCAASGFTFSTFGMHWVRQAPEKGLEWVAYISSGSSTIYYADTVKGRFTISRDNPKNTLFLQMTSLRSEDTAMYYCARSTGTGAMDYWGQGTSVTVSS
VL: DIQMTQTTSSLSASLGDRVTISCRASQDISKYLNWYQQKPDGTVKLLIYYTSRLHSGVPSRFSGSGSGTDYSLTISNLEQEDIATYFCQQGNTLPWTFGGGTKLEIK
notes: as for B1
B4: 27-D11-C2-A10 (antibody, V domains shown)
VH: B3 VH with T31V, M34V, S56N, Y59H, N74I, T100S
VL: B3 VL with T7S, T20S, K31N, T43A, E79D, I106L
notes: as for B1
B5: 26-H9-B9-B7 (antibody, V domains shown)
VH: B3 VH with L4R, T31S, T100D, T102K
VL: B3 VL with Q3V, T7S, K31N
notes: as for B1
B6: 10-H9-E3-G3 (antibody, V domains shown)
VH: B3 VH with L4R, T31S, T57A, I58M, T100D, T102K
VL: B3 VL with K31N, I48V
notes: as for B1
B7: 27-G5-E9-B8 (antibody, V domains shown)
VH: B3 VH with T31S
VL: B3 VL with R18S, I21F, K31N, Y49S, T93A
notes: as for B1
B8: 2-H1-D7-E5-D5 (antibody, V domains shown)
VH: B3 VH with Q3H, T31S, A40P, T57S, S99G
VL: B3 VL with A25T, K31N, R53K, E79D
notes: as for B1
B9: 27-F11-E10-G10 (antibody, V domains shown)
VH: B3 VH with T31S, T69S, Y94F
VL: B3 VL with K31N, I106L
notes: as for B1
B10: ch48-E11-H7-B5 (antibody, V domains shown)
VH: EVQLVESGGGLVKPGGSLKLSCAASGFTFSSYAMSWVRQTPEKRLEWVASITIGDDTYYPDSVKGRFTISRDHAKNILYLQVSSLRSEDTAMYSCARGVNSYGSSYRYFDVWGAGTTVTVSS
VL: DIVMTQSHKFMSTSVGDRVSITCKASQDVSTAVAWYQQKPGQSPKLLIYWASTRHTGVPDRFTGSGSGTDYTLTISSVQAEDLALYYCQQHYSIPFTFGAGTKLEK
B11: ch43-D12-F3-G11 (antibody, V domains shown)
VH: B1 VH
VL: B1 VL
B12: ch8-B3-F6-H8 (antibody, V domains shown)
VH: B2 VH
VL: B2 VL

Numbering of substitutions follows the chain as printed.

T6 sequence (A6NI73 42-299): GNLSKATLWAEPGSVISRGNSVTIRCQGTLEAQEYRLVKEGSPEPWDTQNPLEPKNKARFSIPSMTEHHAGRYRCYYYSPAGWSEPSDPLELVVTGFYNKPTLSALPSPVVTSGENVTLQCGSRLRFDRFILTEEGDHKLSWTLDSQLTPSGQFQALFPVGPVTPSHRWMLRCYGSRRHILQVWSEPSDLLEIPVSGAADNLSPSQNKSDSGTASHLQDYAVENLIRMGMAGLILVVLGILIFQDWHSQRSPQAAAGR
T5 sequence (P59901 24-499): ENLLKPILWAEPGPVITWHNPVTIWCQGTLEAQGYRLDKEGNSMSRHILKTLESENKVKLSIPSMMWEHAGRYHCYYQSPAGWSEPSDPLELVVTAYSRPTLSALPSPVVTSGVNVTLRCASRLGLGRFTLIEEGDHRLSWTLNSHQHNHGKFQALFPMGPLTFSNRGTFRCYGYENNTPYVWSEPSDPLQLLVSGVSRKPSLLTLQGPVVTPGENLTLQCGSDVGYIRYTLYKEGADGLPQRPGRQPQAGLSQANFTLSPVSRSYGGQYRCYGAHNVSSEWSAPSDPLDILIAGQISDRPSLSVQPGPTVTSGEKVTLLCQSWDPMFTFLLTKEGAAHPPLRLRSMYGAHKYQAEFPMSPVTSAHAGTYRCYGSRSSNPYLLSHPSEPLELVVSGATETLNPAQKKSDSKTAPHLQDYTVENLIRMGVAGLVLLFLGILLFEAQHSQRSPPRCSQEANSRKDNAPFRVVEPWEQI
T8 sequence (O75019 17-489): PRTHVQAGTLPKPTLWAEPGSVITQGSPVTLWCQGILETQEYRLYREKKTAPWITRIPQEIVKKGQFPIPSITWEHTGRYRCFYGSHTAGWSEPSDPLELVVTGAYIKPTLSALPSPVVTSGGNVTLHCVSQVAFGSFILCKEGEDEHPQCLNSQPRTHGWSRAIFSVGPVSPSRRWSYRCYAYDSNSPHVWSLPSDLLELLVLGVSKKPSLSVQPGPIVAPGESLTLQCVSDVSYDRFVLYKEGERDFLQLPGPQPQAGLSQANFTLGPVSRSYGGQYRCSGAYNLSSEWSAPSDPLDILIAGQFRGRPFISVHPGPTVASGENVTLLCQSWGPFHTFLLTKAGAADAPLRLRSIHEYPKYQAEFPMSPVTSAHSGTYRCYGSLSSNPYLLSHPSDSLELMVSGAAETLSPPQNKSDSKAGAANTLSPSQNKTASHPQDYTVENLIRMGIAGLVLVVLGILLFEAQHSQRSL

The target of the first assay is T1, human LILRB2 (human, UniProt Q8N423 22-597).
T1 construct: whole, on cells; also called hLILRB2
T1 sequence (Q8N423 22-597): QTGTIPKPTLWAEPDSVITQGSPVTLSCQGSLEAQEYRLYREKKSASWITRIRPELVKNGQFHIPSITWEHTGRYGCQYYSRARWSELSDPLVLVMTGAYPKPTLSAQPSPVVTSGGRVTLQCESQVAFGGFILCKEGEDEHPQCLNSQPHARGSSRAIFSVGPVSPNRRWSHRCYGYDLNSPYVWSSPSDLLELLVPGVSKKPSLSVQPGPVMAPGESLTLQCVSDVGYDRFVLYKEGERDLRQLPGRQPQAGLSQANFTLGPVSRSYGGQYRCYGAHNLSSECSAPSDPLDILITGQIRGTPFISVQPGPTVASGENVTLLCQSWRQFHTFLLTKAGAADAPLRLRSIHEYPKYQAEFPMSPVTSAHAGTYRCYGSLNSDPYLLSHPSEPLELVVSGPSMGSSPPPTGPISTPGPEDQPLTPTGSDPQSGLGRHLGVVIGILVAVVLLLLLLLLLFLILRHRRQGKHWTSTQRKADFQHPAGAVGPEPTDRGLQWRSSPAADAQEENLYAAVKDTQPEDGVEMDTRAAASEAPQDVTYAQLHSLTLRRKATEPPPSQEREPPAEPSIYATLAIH
The experiment in a line: FACS, 293F-hLILRB2 cells. On the technique in general: A flow cytometer gives signals particle by particle.
In turn, B1 showed an MFI of 30.4 MFI.
Molecule B2 showed an MFI of 29.5 MFI.
B3 registered an MFI of 33.2 MFI.
Turning to B4, the MFI was 28.3 MFI.
Same read-out and setting: in the case of B5 it was 28.8 MFI; in that of B6, 29.5 MFI.
Same read-out and setting: the figure for B7 is 25.4 MFI; for B8 it is 31.5 MFI; for B9 it is 27.7 MFI.

For a further assay, the target named is T2, human LILRB1 (human, UniProt Q8NHL6 24-650).
T2 construct: whole, on cells; also called hLILRB1
T2 sequence (Q8NHL6 24-650): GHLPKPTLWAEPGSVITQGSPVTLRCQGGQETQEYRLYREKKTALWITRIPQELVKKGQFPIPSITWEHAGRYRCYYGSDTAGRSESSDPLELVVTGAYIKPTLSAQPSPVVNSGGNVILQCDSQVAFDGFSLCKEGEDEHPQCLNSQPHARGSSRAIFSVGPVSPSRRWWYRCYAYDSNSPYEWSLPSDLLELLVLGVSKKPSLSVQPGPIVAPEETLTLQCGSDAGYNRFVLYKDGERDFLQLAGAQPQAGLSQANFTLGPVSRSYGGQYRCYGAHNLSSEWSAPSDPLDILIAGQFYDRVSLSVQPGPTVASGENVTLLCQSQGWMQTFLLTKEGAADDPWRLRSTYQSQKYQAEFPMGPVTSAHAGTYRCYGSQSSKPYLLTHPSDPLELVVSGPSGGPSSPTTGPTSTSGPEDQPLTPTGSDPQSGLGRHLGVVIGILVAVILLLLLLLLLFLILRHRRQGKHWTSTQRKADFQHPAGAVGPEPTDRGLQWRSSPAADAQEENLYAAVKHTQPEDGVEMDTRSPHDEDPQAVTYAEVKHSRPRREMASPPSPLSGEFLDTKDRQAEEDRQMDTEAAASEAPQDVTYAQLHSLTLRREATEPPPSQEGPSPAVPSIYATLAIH
The assay is described as follows: FACS, 293F-hLILRB1 cells.
For B1, the MFI came out at 22.6 MFI.
Same read-out and setting: in the case of B2 it was 19.4 MFI; in that of B3, 22.5 MFI; in that of B4, 20.8 MFI.
As to B5, the MFI turned out to be 20.8 MFI.
Same read-out and setting: the figure for B6 is 21 MFI.
Molecule B7 came in with an MFI of 20.2 MFI.
On the same count and under the same terms, in the case of B8 it was 25.2 MFI; in that of B9, 21.1 MFI.

In another assay the target is T3, human LILRB4 (human, UniProt Q8NHJ6 22-448).
T3 construct: whole, on cells; also called hLILRB4
The experiment in a line: FACS, 293F-hLILRB4 cells. The method, then:
The subcloning plates were screened by protein or cell-based ELISA, and the subclones with good binding ability were expanded to 24-wells for confirmation tests. The specificity and cross-reactivity of these subclones were confirmed with FACS analysis. […] Fluorescent dye-conjugated secondary antibody was used to detect the binding of the primary antibody with the cells. Median fluorescence intensity (MFI) was measured by FACS analysis. […]
B1 returned an MFI of 727 MFI.
The same measure, in the same setting: the figure for B2 is 1060 MFI.
On to B3, for which the MFI is 759 MFI.
The same measure, in the same setting: in the case of B4 it was 588 MFI; in that of B5, 441 MFI.
Same read-out and setting: in the case of B6 it was 210 MFI; in that of B7, 213 MFI; in that of B8, 915 MFI.
Molecule B9 had an MFI of 512 MFI.

The target of another assay is T3, human LILRB4. The assay is described as follows: FACS, 293F-hLILRB4 cells. The source holds these as a separate data set. The protocol: (§1) The protocol for FACS analysis is described as follows: [0438] (a) Cells were harvested by centrifugation at 300 g for 3 mins. […] (b) The cells were washed for 2 times with FACS buffer by centrifuging at 300 g for 3 mins and the supernatant was discarded. [0440] (c) Cell were resuspended and seeded into assay plate (2×10⁵ cells/well) in 50 μl FACS buffer. […] Cells were incubated with antibodies at 4° C. for 1 hour. […] (d) Step (b) was repeated and the cells were resuspended with 100 μl diluted 2nd antibody, incubated at 4° C. for 1 hour in the dark. [0442] (e) Step (b) was repeated and the cells were resuspended with 100 μl FACS buffer. The cells were kept in dark for FACS analysis.
On to B10, for which the EC50 amounted to 4.05 nM and the “Max MFI” value stood at 53700 MFI.
In the same order, the values of B11 are 2.91 nM and 48000 MFI.
B12: the EC50 is 2.05 nM and the “Max MFI” value was found to be 48500 MFI.

The next assay has as its target T3, human LILRB4. The assay is described as follows: cell-based or functional assay.
B10: the “ADCP (%) at 133.3 nM, macrophages and MV-4-11 cells” value (“ADCP (%) at 133.3 nM” for short) came to 18%.
For the molecule B11, the “ADCP (%) at 133.3 nM” value was 18.2%.
B12: the “ADCP (%) at 133.3 nM” value came to 4.59%.

The target of a further assay is T4, human LILRA2 (human, UniProt Q8N149 24-483).
T4 construct: whole, on cells; also called hLILRA2
T4 sequence (Q8N149 24-483): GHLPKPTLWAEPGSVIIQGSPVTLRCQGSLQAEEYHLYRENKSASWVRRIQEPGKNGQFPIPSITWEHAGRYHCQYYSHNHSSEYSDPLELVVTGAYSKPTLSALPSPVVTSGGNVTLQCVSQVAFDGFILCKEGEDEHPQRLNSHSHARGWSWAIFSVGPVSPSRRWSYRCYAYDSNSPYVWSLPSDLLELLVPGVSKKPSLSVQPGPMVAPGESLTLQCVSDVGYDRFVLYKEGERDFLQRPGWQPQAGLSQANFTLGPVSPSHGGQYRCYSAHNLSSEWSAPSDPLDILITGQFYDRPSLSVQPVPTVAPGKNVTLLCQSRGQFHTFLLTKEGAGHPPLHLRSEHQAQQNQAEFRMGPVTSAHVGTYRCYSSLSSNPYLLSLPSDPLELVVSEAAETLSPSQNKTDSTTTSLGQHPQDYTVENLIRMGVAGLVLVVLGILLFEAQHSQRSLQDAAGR
The experiment in a line: FACS, 293F-hLILRA2 cells.
B1: the MFI is 20 MFI.
B2: the MFI came to 19.6 MFI.
B3: the MFI is 21 MFI.
Still for that read-out and setting: the figure for B4 is 17.8 MFI; for B5 it is 17.9 MFI.
The molecule B6 gave an MFI of 19.9 MFI.
Still for that read-out and setting: the figure for B7 is 17.7 MFI; for B8 it is 20 MFI; for B9 it is 17.3 MFI.

A further assay addresses T5, human LILRA4 (human, UniProt P59901 24-499).
T5 construct: whole, on cells; also called hLILRA4
The assay is described as follows: FACS, 293F-hLILRA4 cells.
Molecule B1 came in with an MFI of 21.2 MFI.
The same measure, in the same setting: in the case of B2 it was 19.5 MFI; in that of B3, 19.9 MFI.
As to B4, the MFI amounted to 19.6 MFI.
Still for that read-out and setting: the figure for B5 is 19.4 MFI.
On the same count and under the same terms, in the case of B6 it was 20.7 MFI; in that of B8, 23.7 MFI; in that of B9, 19.7 MFI.

The next assay addresses T6, human LILRA5 (human, UniProt A6NI73 42-299).
T6 construct: whole, on cells; also called hLILRA5
The assay is described as follows: FACS, 293F-hLILRA5 cells.
B1: the MFI worked out at 172 MFI.
B2 registered an MFI of 24.5 MFI.
Still for that read-out and setting: the figure for B3 is 19.9 MFI; for B4 it is 17.2 MFI.
Molecule B5 gave an MFI of 19.6 MFI.
Still for that read-out and setting: in the case of B6 it was 25 MFI; in that of B7, 19.1 MFI; in that of B8, 24.7 MFI.

In another assay the target is T7, human LILRB3 (human, UniProt O75022 24-631).
T7 construct: whole, on cells; also called hLILRB3
T7 sequence (O75022 24-631): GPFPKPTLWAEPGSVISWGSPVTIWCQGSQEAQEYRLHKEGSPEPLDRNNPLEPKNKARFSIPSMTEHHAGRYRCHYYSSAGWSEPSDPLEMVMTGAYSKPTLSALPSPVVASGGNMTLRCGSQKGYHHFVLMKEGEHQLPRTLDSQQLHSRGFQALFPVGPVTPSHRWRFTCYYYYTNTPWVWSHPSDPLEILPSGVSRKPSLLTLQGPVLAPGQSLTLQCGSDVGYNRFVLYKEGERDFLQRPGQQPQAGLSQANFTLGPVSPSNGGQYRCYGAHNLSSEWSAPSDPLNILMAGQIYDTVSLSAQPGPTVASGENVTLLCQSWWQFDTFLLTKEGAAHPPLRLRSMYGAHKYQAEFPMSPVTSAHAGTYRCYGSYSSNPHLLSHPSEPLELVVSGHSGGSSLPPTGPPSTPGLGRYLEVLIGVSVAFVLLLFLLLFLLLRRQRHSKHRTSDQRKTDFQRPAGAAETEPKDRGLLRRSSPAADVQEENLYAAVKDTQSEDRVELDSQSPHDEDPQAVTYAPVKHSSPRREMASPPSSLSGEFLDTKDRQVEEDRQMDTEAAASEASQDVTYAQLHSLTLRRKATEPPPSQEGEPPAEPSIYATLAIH
The experiment in a line: FACS, 293F-hLILRB3 cells.
As to B3, the MFI came to 23.1 MFI.
On to B4, for which the MFI turned out to be 19.7 MFI.
Same read-out and setting: the figure for B5 is 23.6 MFI.
Still for that read-out and setting: the figure for B6 is 22.7 MFI; for B7 it is 23.7 MFI; for B8 it is 23 MFI.
The same measure, in the same setting: in the case of B9 it was 24.9 MFI.

The target in a further assay is T7, human LILRB3. The experiment in a line: FACS, 293F-hLILRB3 cells. The source holds these as a separate data set. The method, then:
as §1
For B10, the binding result is reported as “no binding (tested: up to 66.67 nM)”.

The next assay addresses T8, human LILRA1 (human, UniProt O75019 17-489).
T8 construct: whole, on cells; also called hLILRA1
The experiment in a line: FACS, 293F-hLILRA1 cells.
The molecule B1 returned an MFI of 22.2 MFI.
Molecule B2 came in with an MFI of 22.2 MFI.
For the molecule B3, the MFI is 23.1 MFI.
On the same count and under the same terms, in the case of B4 it was 21.6 MFI; in that of B5, 21.3 MFI; in that of B6, 21.6 MFI.
The same measure, in the same setting: in the case of B7 it was 24 MFI; in that of B8, 21.9 MFI.
Turning to B9, the MFI was determined as 22.1 MFI.

The target of the next assay is T3, human LILRB4. The assay is described as follows: cell-based or functional assay. This is another data set of the same source.
Consider B10, for which the “FcγR stimulation (TNF-α, pg/mL)” value stood at 1310 pg/mL and the “Fold change (Compared to isotype)” value was 41.4 fold.
As to B11, the “FcγR stimulation (TNF-α, pg/mL)” value came to 215 pg/mL and the “Fold change (Compared to isotype)” value turned out to be 6.81 fold.
Turning to B12, the “FcγR stimulation (TNF-α, pg/mL)” value came out at 391 pg/mL and the “Fold change (Compared to isotype)” value came out at 12.4 fold.

Another assay deals with T3, human LILRB4. The assay is described as follows: cell-based or functional assay. This is another data set of the same source.
Turning to B11, the “EC50 (nM), ADCC on THP-1 cells” value came to 4.14 nM and the “Max cell cytotoxicity (%), ADCC on THP-1 cells” value came out at 2.39%.
As for B12, the “Max cell cytotoxicity (%), ADCC on THP-1 cells” value was 7.1%.

In a further assay the target is T9, human LILRA3 (human, UniProt Q8N6C8 24-439).
T9 construct: whole, on cells; also called hLILRA3
T9 sequence (Q8N6C8 24-439): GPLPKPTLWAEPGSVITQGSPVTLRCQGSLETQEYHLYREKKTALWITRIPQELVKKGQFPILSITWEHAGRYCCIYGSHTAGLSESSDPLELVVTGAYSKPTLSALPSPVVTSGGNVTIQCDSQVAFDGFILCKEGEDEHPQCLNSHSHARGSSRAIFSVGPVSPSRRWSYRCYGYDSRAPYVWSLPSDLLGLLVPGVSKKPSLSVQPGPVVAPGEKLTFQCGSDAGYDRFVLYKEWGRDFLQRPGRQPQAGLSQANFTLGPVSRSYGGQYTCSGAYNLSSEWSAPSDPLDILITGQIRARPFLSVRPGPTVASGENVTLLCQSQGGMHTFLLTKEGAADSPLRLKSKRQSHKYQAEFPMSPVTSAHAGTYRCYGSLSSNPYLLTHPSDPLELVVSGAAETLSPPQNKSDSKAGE
The assay is described as follows: FACS, 293F-hLILRA3 cells.
As for B1, the MFI was found to be 20.2 MFI.
On the same count and under the same terms, the figure for B2 is 20 MFI; for B3 it is 20.1 MFI.
For the molecule B4, the MFI was 17.2 MFI.
As for B5, the MFI was found to be 19.1 MFI.
Same read-out and setting: in the case of B6 it was 18.3 MFI; in that of B7, 19.5 MFI; in that of B8, 20 MFI.
B9 came in with an MFI of 19.1 MFI.

The target in another assay is T10, human LILRB5 (human, UniProt O75023 24-590).
T10 construct: whole, on cells; also called hLILRB5
T10 sequence (O75023 24-590): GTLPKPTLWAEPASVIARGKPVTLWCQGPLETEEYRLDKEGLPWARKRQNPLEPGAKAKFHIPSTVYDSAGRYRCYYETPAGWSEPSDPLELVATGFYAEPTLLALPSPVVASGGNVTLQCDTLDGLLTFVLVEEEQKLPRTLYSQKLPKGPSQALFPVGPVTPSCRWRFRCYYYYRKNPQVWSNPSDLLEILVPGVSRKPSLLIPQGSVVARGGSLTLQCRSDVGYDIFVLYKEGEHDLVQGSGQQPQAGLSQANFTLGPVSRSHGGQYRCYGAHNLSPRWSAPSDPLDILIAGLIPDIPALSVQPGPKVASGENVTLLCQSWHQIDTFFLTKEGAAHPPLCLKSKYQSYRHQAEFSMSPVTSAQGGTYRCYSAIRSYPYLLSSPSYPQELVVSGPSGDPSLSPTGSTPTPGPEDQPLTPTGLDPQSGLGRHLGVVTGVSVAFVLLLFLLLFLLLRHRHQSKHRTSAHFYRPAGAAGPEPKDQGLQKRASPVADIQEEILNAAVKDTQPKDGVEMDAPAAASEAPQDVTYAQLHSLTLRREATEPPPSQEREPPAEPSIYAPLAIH
The assay is described as follows: FACS, 293F-hLILRB5 cells.
For the molecule B1, the MFI came to 17.9 MFI.
As to B2, the MFI came to 16.8 MFI.
Turning to B3, the MFI is 16.3 MFI.
Same read-out and setting: the figure for B4 is 18.8 MFI; for B5 it is 19.6 MFI.
The same measure, in the same setting: the figure for B6 is 21.8 MFI; for B7 it is 18.7 MFI; for B8 it is 22.6 MFI.
B9 showed an MFI of 19.5 MFI.

A word on the EC50: it is the concentration giving half of the maximal effect.
